Assay results reported in the supplement of paper PMC10201428.
± gives the standard deviation of the averaged measurements.

B1: library; a variant is named by its letters at N, in order (parent)
chain: AATGTTGTTGATGCAACCATAAAGTGATATTTAATAATTATTTATAATCAGCAACTTAACCACAAAACAACCATATATTGATATNTCACAAAACAACCATAANTTGATATTTTTGTGAATCGAGTATTTCAGCAAAACTACTGCAGTAAGAA

Key:
[1] = variants of: B1; experiment: relative integration efficiency (T-LR orientation) vs wild-type transposon end (log2 (normalized fold change)); transposon end mutated: left end; higher = more efficient transposition; conditions: with VchCAST RNA-guided transposition machinery (E. coli BL21(DE3) host, lacZ target)
Protocol: (§1)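 Pooled, barcoded VchCAST (Tn6677) mini-transposon donor libraries; each variable transposon-end sequence sits in a fixed pDonor mini-transposon context (10-bp barcode and cargo not included). Left- or right-end libraries were co-transformed with pEffector (TniQ-Cascade, TnsABC, lacZ crRNA, T7, 0.1 mM IPTG) into E. coli BL21(DE3) and grown 18 h at 37 C. T-LR and T-RL junction amplicons were sequenced; output/input barcode fold change was normalised to the mean of four wild-type barcodes and log2-transformed. Two biological replicates; zero-count/undetected variants carry floor values (-10 / -15), censored here. Barcode uncoupling by PCR recombination adds noise.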

[2] = variants of: B1; experiment: relative integration efficiency (T-RL orientation) vs wild-type transposon end (log2 (normalized fold change)); transposon end mutated: left end; higher = more efficient transposition; conditions: with VchCAST RNA-guided transposition machinery (E. coli BL21(DE3) host, lacZ target)
Protocol: as §1

Variant | relative integration efficiency (log2) [1] | relative integration efficiency (log2) [2]
AATGTTGTTGATGCACCCATAAATTGATAATTAATAATTATTTATAATCAGCAACTTAACCACAAAACAACCATATATTGATATCTCACAAAACACCCATAAATTGATATTGCTGTGAATCGAGTATTTCAGCAAAACTACTGCAGTAAGAA [CA A16C G24T T30A A96C T112G T113C] | -0.699 ± 0.71 | -0.628 ± 0.18
AATGTTGTTGATGCACCCATAAATTGATAATTAATAATTATTTATAATCAGCAACTTAACCACAAAACAACCATATATTGATATCTCACAAAACAACCATATATTGATATCTCTGTGAATCGAGTATTTCAGCAAAACTACTGCAGTAAGAA [CA A16C G24T T30A A102T T111C T113C] | -0.907 ± 1 | -0.887 ± 0.57
AATGTTGTTGATGCAACCATAAAGTGATATTTAATAATTATTTATAATCAGCAACTTAACCACAAAACAACCATATATTGATATCTCACAAAACAACCATAAATTGATATTTTTGTGAATCGAGTATTTCAGCAAAACTACTGCAGTAAGAA [CA] | 0.637 ± 0.24 | 0.299 ± 0.068
AATGTTGTTGATGCACCCATAAATTGATAATTAATAATTATTTATAATCAGCAACTTAACCACAAAACACCCATAAATTGATATTGCACAAAACAACCATATATTGATATCTCTGTGAATCGAGTATTTCAGCAAAACTACTGCAGTAAGAA [TA A16C G24T T30A A70C T76A T86G A102T T111C T113C] | -0.48 ± 1.4 | -0.134 ± 0.32
AATGTTGTTGATGCACCCATAAATTGATAATTAATAATTATTTATAATCAGCAACTTAACCACAAAACACCCATAAATTGATAATTAACAAAACAACCATATATTGATATCTCTGTGAATCGAGTATTTCAGCAAAACTACTGCAGTAAGAA [TA A16C G24T T30A A70C T76A T84A C87A A102T T111C T113C] | -0.517 ± 1.4 | -0.107 ± 0.55
AATGTTGTTGATGCACCCATAAATTGATAATTAATAATTATTTATAATCAGCAACTTAACCACAAAACAACCATATATTGATATCTCACAAAACACCCATAAATTGATAATTATGTGAATCGAGTATTTCAGCAAAACTACTGCAGTAAGAA [CA A16C G24T T30A A96C T110A T113A] | -0.499 ± 0.66 | -0.208 ± 0.19
AATGTTGTTGATGCACCCATAAATTGATAATTAATAATTATTTATAATCAGCAACTTAACCACAAAACAACCATAAGTTGATATTTTACAAAACAACCATAAAGTGATATTTATGTGAATCGAGTATTTCAGCAAAACTACTGCAGTAAGAA [TA A16C G24T T30A T76A A77G C87T T104G T113A] | -0.204 ± 0.73 | -0.483 ± 0.46
AATGTTGTTGATGCACCCATAAATTGATAATTAATAATTATTTATAATCAGCAACTTAACCACAAAACACCCATAAATTGATAATTAACAAAACAACCATAAAGTGATATTTATGTGAATCGAGTATTTCAGCAAAACTACTGCAGTAAGAA [TA A16C G24T T30A A70C T76A T84A C87A T104G T113A] | 0.223 ± 0.78 | -0.109 ± 0.46
AATGTTGTTGATGCACCCATAAATTGATAATTAATAATTATTTATAATCAGCAACTTAACCACAAAACAACCATAAGTTGATATTTTACAAAACAACCATAAAATGATAATTATGTGAATCGAGTATTTCAGCAAAACTACTGCAGTAAGAA [TA A16C G24T T30A T76A A77G C87T T104A T110A T113A] | -0.222 ± 0.22 | -0.901 ± 0.53
AATGTTGTTGATGCACCCATAAATTGATAATTAATAATTATTTATAATCAGCAACTTAACCACAAAACACCCATAAATTGATAATTAACAAAACAACCATAAAATGATAATTATGTGAATCGAGTATTTCAGCAAAACTACTGCAGTAAGAA [TA A16C G24T T30A A70C T76A T84A C87A T104A T110A T113A] | -0.0907 ± 0.0099 | 0.0016 ± 0.4
AATGTTGTTGATGCACCCATAAATTGATAATTAATAATTATTTATAATCAGCAACTTAACCACAAAACACCCATAAATTGATATTGCACAAAACACCCATAAATTGATAATTATGTGAATCGAGTATTTCAGCAAAACTACTGCAGTAAGAA [TA A16C G24T T30A A70C T76A T86G A96C T110A T113A] | -0.0192 ± 0.24 | -0.213 ± 0.29
AATGTTGTTGATGCACCCATAAATTGATAATTAATAATTATTTATAATCAGCAACTTAACCACAAAACAACCATAAGTTGATATTTTACAAAACAACCATATATTGATATCTCTGTGAATCGAGTATTTCAGCAAAACTACTGCAGTAAGAA [TA A16C G24T T30A T76A A77G C87T A102T T111C T113C] | -1.05 ± 1.4 | -0.994 ± 0.46
AATGTTGTTGATGCACCCATAAATTGATAATTAATAATTATTTATAATCAGCAACTTAACCACAAAACAACCATAAGTTGATATTTTACAAAACACCCATAAATTGATAATTATGTGAATCGAGTATTTCAGCAAAACTACTGCAGTAAGAA [TA A16C G24T T30A T76A A77G C87T A96C T110A T113A] | 0.1 ± 1.2 | -0.0467 ± 0.48
AATGTTGTTGATGCACCCATAAATTGATAATTAATAATTATTTATAATCAGCAACTTAACCACAAAACACCCATAAATTGATAATTAACAAAACACCCATAAATTGATATTGCTGTGAATCGAGTATTTCAGCAAAACTACTGCAGTAAGAA [TA A16C G24T T30A A70C T76A T84A C87A A96C T112G T113C] | -0.489 ± 0.88 | 0.259 ± 0.14
AATGTTGTTGATGCACCCATAAATTGATAATTAATAATTATTTATAATCAGCAACTTAACCACAAAACACCCATAAATTGATATTGCACAAAACACCCATAAATTGATATTGCTGTGAATCGAGTATTTCAGCAAAACTACTGCAGTAAGAA [TA A16C G24T T30A A70C T76A T86G A96C T112G T113C] | -0.394 ± 0.73 | -0.421 ± 0.27
AATGTTGTTGATGCACCCATAAATTGATAATTAATAATTATTTATAATCAGCAACTTAACCACAAAACAACCATAAGTTGATATTTTACAAAACACCCATAAATTGATATTGCTGTGAATCGAGTATTTCAGCAAAACTACTGCAGTAAGAA [TA A16C G24T T30A T76A A77G C87T A96C T112G T113C] | 0.0498 ± 0.26 | -0.0655 ± 0.56
AATGTTGTTGATGCACCCATAAATTGATAATTAATAATTATTTATAATCAGCAACTTAACCACAAAACACCCATAAATTGATATTGCACAAAACAACCATAAAATGATAATTATGTGAATCGAGTATTTCAGCAAAACTACTGCAGTAAGAA [TA A16C G24T T30A A70C T76A T86G T104A T110A T113A] | -0.858 ± 0.25 | -0.764 ± 0.36
AATGTTGTTGATGCACCCATAAATTGATAATTAATAATTATTTATAATCAGCAACTTAACCACAAAACACCCATAAATTGATAATTAACAAAACACCCATAAATTGATAATTATGTGAATCGAGTATTTCAGCAAAACTACTGCAGTAAGAA [TA A16C G24T T30A A70C T76A T84A C87A A96C T110A T113A] | -0.489 ± 0.47 | -0.00649 ± 0.34
AATGTTGTTGATGCACCCATAAATTGATAATTAATAATTATTTATAATCAGCAACTTAACCACAAAACACCCATAAATTGATATTGCACAAAACAACCATAAAGTGATATTTATGTGAATCGAGTATTTCAGCAAAACTACTGCAGTAAGAA [TA A16C G24T T30A A70C T76A T86G T104G T113A] | -0.388 ± 0.33 | -0.652 ± 0.39
